For 79 sequences, switch fluorescence ratio results are on record in the supplement of paper PMC10126150.

± gives the standard deviation of the averaged measurements.
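Note: ATP exposure 15 min at 22 °C before imaging.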

The data set concerns ATP. The experiment in a line: switch fluorescence ratio, 500 uM ATP over buffer (Cy3 cluster intensity, sum of 5 cycles each) (fold (ratio)); higher = stronger signal-on switching upon ATP binding; sequences stand for … in TCGTCGGCAGCGTCAGATGTGTATAAGAGACAGTTTTTTTTTTTTTTTTTTTTTTTTT…TC. Conditions: aptamer strand: ATP DNA aptamer (quencher-CACCTGGGGGAGTATTGCGGAGGAAGG + anchor), 100 nM annealed; ATP concentration: 500 uM. An outline of the steps: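 For every switch-domain sequence, the fluorescence ratio is the mean of per-cluster values, each being summed target-cycle Cy3 intensity over summed buffer-cycle Cy3 intensity. Clusters outside 100-1000 RFU were excluded. On a modified Illumina MiSeq flow-cell, the Cy3-labelled switching-strand clusters were annealed to 100 nM quencher-labelled ATP aptamer, imaged in selection buffer and then after 15 min with 500 uM ATP at 22 °C. Five such cycles were run, with NaOH stripping and re-annealing between them.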
Take GCGTGAGCGA: the switch fluorescence ratio came out at 0.985 ± 0.042.
To TTCTATGGTG belongs 1 ± 0.04; to GGTGAGGCTA, 1 ± 0.022.
Under ACCGGAGGGC stands 0.9905 ± 0.0044; under ACGGGAGTGC, 1.03 ± 0.046; under AGGGGGGGTA, 0.997 ± 0.033.
Under TTAGAAAGTC stands 1.64 ± 0.93; under GTTTTTAGGC, 1.02 ± 0.094.
Turning to TTCTTTGGCT, the switch fluorescence ratio was 0.977 ± 0.018.
To CATTGGACCT belongs 1.29 ± 0.089; to ATATTAGACG, 1.04 ± 0.036; to CGAGAAAGAG, 0.983 ± 0.077.
Under GGGTCGGCGA stands 1.03 ± 0.011; under TTAGGGGACA, 1.04 ± 0.025.
To TGTGAAGGCG belongs 1.71 ± 1; to ATAAGTTTTG, 0.978 ± 0.027.
With ACATCCGTCG, the switch fluorescence ratio was found to be 1.06 ± 0.022.
As for TCGCGGAGTT, the switch fluorescence ratio is 1 ± 0.011.
To CAGCGGGATT belongs 0.995 ± 0.036; to TTAACCGGTA, 1.02 ± 0.0039.
Under TGTGGCACAT stands 1.005 ± 0.0065; under TTAGTCCAGA, 1.007 ± 0.0018.
Under TTATTGTTGA stands 1.02 ± 0.011; under TCATGGCACC, 1.05 ± 0.025; under AGGGCAGCGG, 1.03 ± 0.033.
CAGAGGAGGG: the switch fluorescence ratio was found to be 0.9747 ± 0.008.
Regarding TAAAAAGTAG, the switch fluorescence ratio was 0.992 ± 0.024.
Under TGATATAGGA stands 1.01 ± 0.064; under GATTGTAAAG, 1.021 ± 0.01; under ACGCCCTTTT, 1.05 ± 0.052.
To AATGTGGTTG belongs 0.997 ± 0.013; to ATAGGAGTTC, 1.03 ± 0.023.
To TGATGGGGCG belongs 0.982 ± 0.023; to AAAGAGGGGG, 1.03 ± 0.049; to GGCCATACGT, 1.09 ± 0.094.
Regarding CGGCTTTCCC, the switch fluorescence ratio was found to be 1.01 ± 0.028.
To GTAGGACATC belongs 1.01 ± 0.023; to TTGGGGGCGT, 1.03 ± 0.058; to GACTCAGAGG, 1.03 ± 0.011.
To CGATTAACTC belongs 1.03 ± 0.012; to AGAGAGAGGT, 0.992 ± 0.045.
To AACGCGACAT belongs 1.29 ± 0.022; to AAAGAGTTTT, 1.02 ± 0.071.
On to TTTGTGATTT, for which the switch fluorescence ratio is 1.11 ± 0.27.
To AGCCGATATT belongs 0.967 ± 0.015; to TTTTCATTGG, 0.985 ± 0.026.
With CGGAAGGAAG, the switch fluorescence ratio stood at 0.946 ± 0.036.
Under GTTTGATAGA stands 0.984 ± 0.027; under CAAGGAATTT, 0.969 ± 0.023; under GGTAGGAGAG, 0.987 ± 0.0057.
Regarding TGCGGTAAAA, the switch fluorescence ratio came out at 1.03 ± 0.063.
To TAGGGGTGGT belongs 0.984 ± 0.032; to TTTCAGGCTT, 1.14 ± 0.13; to GAAAAATTAC, 1.49 ± 0.75.
Consider TCAACCGGGG, for which the switch fluorescence ratio was 1.079 ± 0.0021.
Under GCTAATTGGC stands 1.04 ± 0.098; under TGGTTGCTGA, 1 ± 0.033.
Regarding AAAATGGGTT, the switch fluorescence ratio stood at 1 ± 0.059.
To TTGGAGGGAG belongs 0.999 ± 0.043; to ATTGATTCGG, 0.999 ± 0.014.
Under GAGACCCGTG stands 0.9867 ± 0.0059.
To CGCTGGGGGC belongs 1.03 ± 0.016; to TGGCAGGTTG, 1.01 ± 0.013.
CCACTAATGG: the switch fluorescence ratio was 1.03 ± 0.013.
For GTTGGGATGG, the switch fluorescence ratio turned out to be 0.991 ± 0.015.
Under TCCGATGCGT stands 2.97 ± 2.8; under CGGATTGGGA, 1.002 ± 0.0026.
As to GGGCACTCGC, the switch fluorescence ratio came out at 0.999 ± 0.033.
To CAATTTAGCG belongs 1.02 ± 0.032; to TCGTGTGGAG, 1.01 ± 0.033.
Under CTGGTTTGCC stands 0.974 ± 0.048; under ACTAGTGGTC, 0.992 ± 0.042.
For TAGGGAGGGT, the switch fluorescence ratio is 1.11 ± 0.2.
To AAAATGCAG belongs 0.9856 ± 0.0015; to TTATTAAGGG, 0.98 ± 0.047; to TTTTGGGATA, 1.03 ± 0.025.
To GAGGCGTATT belongs 0.988 ± 0.049; to AGCTGTTGCA, 0.971 ± 0.024.
Under ACCGTGATGT stands 1.08 ± 0.024.
